The subject of data set [1] is HeLa Kyoto. Kind of data set: solubility in G1/S (NP-40 vs SDS abundance) (log2 ratio); higher = more soluble. The following applies: cell cycle stage: G1/S.
Data set [2] has as its system HeLa Kyoto. Description: melting temperature (median over replicates), in situ; higher = more thermally stable.
Data set [3] has as its system HeLa Kyoto. Description: solubility change mitosis vs G1/S (difference of NP-40 vs SDS log2 ratios) (log2 ratio difference); higher = more soluble in mitosis.
The subject of data set [4] is HeLa Kyoto. Kind of data set: thermal stability score vs G1/S (z-score of summed log2 fold changes over temperatures); higher = more thermally stable than in G1/S.
The mark [5] stands for this setting: cell cycle stage: early G1 (4.5 h after nocodazole release).
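Throughout, for melting temperature (median over replicates), in situ: HeLa Kyoto cells synchronized by double thymidine or nocodazole block, proteins quantified by TMT10plex mass spectrometry, three independent biological replicates.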
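Throughout, for solubility change mitosis vs G1/S (difference of NP-40 vs SDS log2 ratios): synchronized HeLa Kyoto cells (double thymidine block for G1/S, nocodazole release for mitosis), protein amounts in NP-40 versus SDS lysates quantified by mass spectrometry, three biological replicates.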
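Throughout, for solubility in G1/S (NP-40 vs SDS abundance): HeLa Kyoto cells arrested at G1/S by double thymidine block, proteins quantified by TMT10plex mass spectrometry in mild NP-40 versus SDS extracts, three biological replicates.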
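Throughout, for thermal stability score vs G1/S (z-score of summed log2 fold changes over temperatures): synchronized HeLa Kyoto cells, proteins quantified by TMT10plex mass spectrometry, three biological replicates, mitosis taken 0.5 h after nocodazole release, G1/S directly after double thymidine block.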

On to “MDLLFGRRKTPEELLRQNQRALNRAMRELDRERQKLETQEKKIIADIKKMAKQGQMDAVRIMAKDLVRTRRYVRKFVLMRANIQAVSLKIQTLKSNNSMAQAMKGVTKAMGTMNRQLKLPQIQKIMMEFERQAEIMDMKEEMMNDAIDDAMGDEEDEEESDAVVSQVLDELGLSLTDELSNLPSTGGSLSVAAGGKKAEAAASALADADADLEERLKNLRRD [CHMP2A]”, for which the “solubility in G1/S (log2)” value in the data set with HeLa Kyoto [1] came to 0.537. Besides, the melting temperature amounted to 53 °C with HeLa Kyoto [2] (cell cycle stage: G1/S) and 54.4 °C with HeLa Kyoto [2] (cell cycle stage: mitosis). The “solubility change mitosis (log2)” value with HeLa Kyoto [3] worked out at 0.0293. For the same sequence, the figures for the thermal stability score in the data set with HeLa Kyoto [4] (setting [5]) and in the data set on HeLa Kyoto [4] (cell cycle stage: mitosis) were 0.326 and 0.533, respectively.

Consider “MDLNSASTVVLQVLTQATSQDTAVLKPAEEQLKQWETQPGFYSVLLNIFTNHTLDINVRWLAVLYFKHGIDRYWRRVAPHALSEEEKTTLRAGLITNFNEPINQIATQIAVLIAKVARLDCPRQWPELIPTLIESVKVQDDLRQHRALLTFYHVTKTLASKRLAADRKLFYDLASGIYNFACSLWNHHTDTFLQEVSSGNEAAILSSLERTLLSLKVLRKLTVNGFVEPHKNMEVMGFLHGIFERLKQFLECSRSIGTDNVCRDRLEKTIILFTKVLLDFLDQHPFSFTPLIQRSLEFSVSYVFTEVGEGVTFERFIVQCMNLIKMIVKNYAYKPSKNFEDSSPETLEAHKIKMAFFTYPTLTEICRRLVSHYFLLTEEELTMWEEDPEGFTVEETGGDSWKYSLRPCTEVLFIDIFHEYNQTLTPVLLEMMQTLQGPTNVEDMNALLIKDAVYNAVGLAAYELFDSVDFDQWFKNQLLPELQVIHNRYKPLRRRVIWLIGQWISVKFKSDLRPMLYEAICNLLQDQDLVVRIETATTLKLTVDDFEFRTDQFLPYLETMFTLLFQLLQQVTECDTKMHVLHVLSCVIERVNMQIRPYVGCLVQYLPLLWKQSEEHNMLRCAILTTLIHLVQGLGADSKNLYPFLLPVIQLSTDVSQPPHVYLLEDGLELWLVTLENSPCITPELLRIFQNMSPLLELSSENLRTCFKIINGYIFLSSTEFLQTYAVGLCQSFCELLKEITTEGQVQVLKVVENALKVNPILGPQMFQPILPYVFKGIIEGERYPVVMSTYLGVMGRVLLQNTSFFSSLLNEMAHKFNQEMDQLLGNMIEMWVDRMDNITQPERRKLSALALLSLLPSDNSVIQDKFCGIINISVEGLHDVMTEDPETGTYKDCMLMSHLEEPKVTEDEEPPTEQDKRKKMLALKDPVHTVSLQQFIYEKLKAQQEMLGEQGFQSLMETVDTEIVTQLQEFLQGF [IPO11]”, for which the “solubility in G1/S (log2)” value in the data set with HeLa Kyoto [1] was -0.209. Also, the melting temperature in the data set on HeLa Kyoto [2] (cell cycle stage: G1/S) came to 51.5 °C; with HeLa Kyoto [2] (cell cycle stage: mitosis) it was 50.8 °C. Further, the “solubility change mitosis (log2)” value in the data set with HeLa Kyoto [3] is -0.25. The results for the thermal stability score in the data set with HeLa Kyoto [4] (setting [5]) and in the data set with HeLa Kyoto [4] (cell cycle stage: mitosis) were 1.33 and 0.273, respectively.

Consider “MDLRQFLMCLSLCTAFALSKPTEKKDRVHHEPQLSDKVHNDAQSFDYDHDAFLGAEEAKTFDQLTPEESKERLGKIVSKIDGDKDGFVTVDELKDWIKFAQKRWIYEDVERQWKGHDLNEDGLVSWEEYKNATYGYVLDDPDPDDGFNYKQMMVRDERRFKMADKDGDLIATKEEFTAFLHPEEYDYMKDIVVQETMEDIDKNADGFIDLEEYIGDMYSHDGNTDEPEWVKTEREQFVEFRDKNRDGKMDKEETKDWILPSDYDHAEAEARHLVYESDQNKDGKLTKEEIVDKYDLFVGSQATDFGEALVRHDEF [CALU]”, for which the “solubility in G1/S (log2)” value in the data set on HeLa Kyoto [1] was determined as 0.281. Further, the melting temperature in the data set with HeLa Kyoto [2] (cell cycle stage: G1/S) was 57.8 °C; in the data set on HeLa Kyoto [2] (cell cycle stage: mitosis), 60.3 °C. In the data set on HeLa Kyoto [3], the “solubility change mitosis (log2)” value came out at 0.167. For the same sequence, the thermal stability score in the data set with HeLa Kyoto [4] (setting [5]) was 1.04; in the data set on HeLa Kyoto [4] (cell cycle stage: mitosis), -0.549.

Turning to “MDLYSTPAAALDRFVARRLQPRKEFVEKARRALGALAAALRERGGRLGAAAPRVLKTVKGGSSGRGTALKGGCDSELVIFLDCFKSYVDQRARRAEILSEMRASLESWWQNPVPGLRLTFPEQSVPGALQFRLTSVDLEDWMDVSLVPAFNVLGQAGSGVKPKPQVYSTLLNSGCQGGEHAACFTELRRNFVNIRPAKLKNLILLVKHWYHQVCLQGLWKETLPPVYALELLTIFAWEQGCKKDAFSLAEGLRTVLGLIQQHQHLCVFWTVNYGFEDPAVGQFLQRQLKRPRPVILDPADPTWDLGNGAAWHWDLLAQEAASCYDHPCFLRGMGDPVQSWKGPGLPRAGCSGLGHPIQLDPNQKTPENSKSLNAVYPRAGSKPPSCPAPGPTGAASIVPSVPGMALDLSQIPTKELDRFIQDHLKPSPQFQEQVKKAIDIILRCLHENCVHKASRVSKGGSFGRGTDLRDGCDVELIIFLNCFTDYKDQGPRRAEILDEMRAQLESWWQDQVPSLSLQFPEQNVPEALQFQLVSTALKSWTDVSLLPAFDAVGQLSSGTKPNPQVYSRLLTSGCQEGEHKACFAELRRNFMNIRPVKLKNLILLVKHWYRQVAAQNKGKGPAPASLPPAYALELLTIFAWEQGCRQDCFNMAQGFRTVLGLVQQHQQLCVYWTVNYSTEDPAMRMHLLGQLRKPRPLVLDPADPTWNVGHGSWELLAQEAAALGMQACFLSRDGTSVQPWDVMPALLYQTPAGDLDKFISEFLQPNRQFLAQVNKAVDTICSFLKENCFRNSPIKVIKVVKGGSSAKGTALRGRSDADLVVFLSCFSQFTEQGNKRAEIISEIRAQLEACQQERQFEVKFEVSKWENPRVLSFSLTSQTMLDQSVDFDVLPAFDALGQLVSGSRPSSQVYVDLIHSYSNAGEYSTCFTELQRDFIISRPTKLKSLIRLVKHWYQQCTKISKGRGSLPPQHGLELLTVYAWEQGGKDSQFNMAEGFRTVLELVTQYRQLCIYWTINYNAKDKTVGDFLKQQLQKPRPIILDPADPTGNLGHNARWDLLAKEAAACTSALCCMGRNGIPIQPWPVKAAV [OAS3]”, the “solubility in G1/S (log2)” value in the data set on HeLa Kyoto [1] is -0.177. Besides, the melting temperature in the data set with HeLa Kyoto [2] (cell cycle stage: G1/S) worked out at 50.3 °C; in the data set with HeLa Kyoto [2] (cell cycle stage: mitosis), 49.8 °C. Further, the “solubility change mitosis (log2)” value with HeLa Kyoto [3] is -0.109. The thermal stability score stood at 1.51 with HeLa Kyoto [4] (setting [5]) and 1.6 with HeLa Kyoto [4] (cell cycle stage: mitosis).

The record behind these values is the supplement of paper PMC5998384.
